79 variants from the supplement of paper PMC10567573 can be followed below.

To fix the notation:
B1: INTS3 (parent)
chain: DLNSKGKKREFRFHPIKETVVEEP
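Note: lentivirally expressed fusions sorted by FACS into six bins by GFP to DsRed ratio, PSI derived from sequencing read proportions per bin multiplied by bin number.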

Variants of B1 are the subject of the series. The series can be described thus: protein stability index of a GFP-peptide fusion (GPS, HEK-293T) (PSI 1-6); higher = more stable. Particulars: c terminus: a fixed tail appended.
Consider DLNSKGKKREFRFHPIKGTVVEEP, for which the protein stability index came to 2.1. To DLNSKGKKREFRFHPIKTTVVEEP belongs 2.7; to DLNSKGKKREFRFHPIKYTVVEEP, 2.41; to DLNSKGKKREFRFHPIKHTVVEEP, 2.13.

In the case of DLNSKGKKREFRFHPIKFTVVEEP, the protein stability index was found to be 2.1. For the variant DLNSKGKKREFRFHPIKNTVVEEP, the protein stability index turned out to be 1.63. Consider DLNSKGKKREFRFHPIKLTVVEEP, for which the protein stability index turned out to be 2.83. On to DLNSKGKKREFRFHPIKWTVVEEP, for which the protein stability index was 2.75. The value for DLNSKGKKREFRFHPIKMTVVEEP was 2.28; that for DLNSKGKKREFRFHPIKKTVVEEP was 1.79; that for DLNSKGKKREFRFHPIKRTVVEEP was 1.87.

On to DLNSKGKKREFRFHPIKCTVVEEP, for which the protein stability index came to 2.48. To DLNSKGKKREFRFHPIKITVVEEP belongs 1.96; to DLNSKGKKREFRFHPIKPTVVEEP, 2.19. The value for DLNSKGKKREFRFHPIKVTVVEEP was 1.86; that for DLNSKGKKREFRFHPIKQTVVEEP was 1.58; that for DLNSKGKKREFRFHPIKSTVVEEP was 1.94. Take DLNSKGKKREFRFHPIKDTVVEEP: the protein stability index was found to be 2.68. To DLNSKGKKREFRFHPIKATVVEEP belongs 2.42. To DLNSKGKKREFRFHPIKETVVEMP belongs 2.02; to DLNSKGKKREFRFHPIKETVVENP, 1.73. As to DLNSKGKKREFRFHPIKETVVEFP, the protein stability index is 1.71. The value for DLNSKGKKREFRFHPIKETVVEWP was 1.48.

DLNSKGKKREFRFHPIKETVVEIP: the protein stability index is 2.24. As to DLNSKGKKREFRFHPIKETVVEGP, the protein stability index was 2.13.

Turning to DLNSKGKKREFRFHPIKETVVETP, the protein stability index amounted to 2.24. Regarding DLNSKGKKREFRFHPIKETVVERP, the protein stability index is 2.04.

Regarding DLNSKGKKREFRFHPIKETVVEDP, the protein stability index amounted to 2.45. For DLNSKGKKREFRFHPIKETVVEAP, the protein stability index is 1.81.

DLNSKGKKREFRFHPIKETVVECP: the protein stability index was 3.71.

Turning to DLNSKGKKREFRFHPIKETVVELP, the protein stability index amounted to 2.19. DLNSKGKKREFRFHPIKETVVEQP: the protein stability index came out at 2.35. As for DLNSKGKKREFRFHPIKETVVEHP, the protein stability index was 1.99. To DLNSKGKKREFRFHPIKETVVEKP belongs 2.27; to DLNSKGKKREFRFHPIKETVVESP, 1.58; to DLNSKGKKREFRFHPIKETVVEVP, 2.25. To DLNSKGKKREFRFHPIKETVVEPP belongs 2.36; to DLNSKGKKREFRFHPIKETVVEYP, 1.71. To DLNSKGKKREFRFHPIKETMVEEP belongs 2.25; to DLNSKGKKREFRFHPIKETGVEEP, 2.07. Regarding DLNSKGKKREFRFHPIKETDVEEP, the protein stability index is 2.87.

As to DLNSKGKKREFRFHPIKETPVEEP, the protein stability index stood at 2.73. The value for DLNSKGKKREFRFHPIKETWVEEP was 3.44. DLNSKGKKREFRFHPIKETHVEEP: the protein stability index was determined as 2.6. DLNSKGKKREFRFHPIKETIVEEP: the protein stability index stood at 1.97. To DLNSKGKKREFRFHPIKETAVEEP belongs 2.3; to DLNSKGKKREFRFHPIKETLVEEP, 1.99; to DLNSKGKKREFRFHPIKETEVEEP, 2.54. To DLNSKGKKREFRFHPIKETTVEEP belongs 2.09; to DLNSKGKKREFRFHPIKETQVEEP, 2.65.

Take DLNSKGKKREFRFHPIKETRVEEP: the protein stability index came to 1.77. The value for DLNSKGKKREFRFHPIKETFVEEP was 1.9.

As to DLNSKGKKREFRFHPIKETSVEEP, the protein stability index amounted to 2.07. To DLNSKGKKREFRFHPIKETKVEEP belongs 2.16; to DLNSKGKKREFRFHPIKETYVEEP, 1.92; to DLNSKGKKREFRFHPIKETCVEEP, 2.29. DLNSKGKKREFRFHPIKETNVEEP: the protein stability index is 2.37. The value for DLNSKGKKREFRFHPYKETVVEEP was 2.36; that for DLNSKGKKREFRFHPQKETVVEEP was 2.34.

Turning to DLNSKGKKREFRFHPVKETVVEEP, the protein stability index was found to be 2.71. To DLNSKGKKREFRFHPRKETVVEEP belongs 1.77.

As for DLNSKGKKREFRFHPSKETVVEEP, the protein stability index turned out to be 1.99. In the case of DLNSKGKKREFRFHPTKETVVEEP, the protein stability index was 2.12. Turning to DLNSKGKKREFRFHPWKETVVEEP, the protein stability index turned out to be 2.12. The value for DLNSKGKKREFRFHPIKESVVEEP was 2.12; that for DLNSKGKKREFRFHPIKEKVVEEP was 2. To DLNSKGKKREFRFHPIKEGVVEEP belongs 2.62.

For DLNSKGKKREFRFHPIKEMVVEEP, the protein stability index came out at 2.31. As for DLNSKGKKREFRFHPIKEQVVEEP, the protein stability index amounted to 1.96. Regarding DLNSKGKKREFRFHPIKEYVVEEP, the protein stability index is 1.92. Take DLNSKGKKREFRFHPIKEHVVEEP: the protein stability index came out at 2.42. For DLNSKGKKREFRFHPIKELVVEEP, the protein stability index came out at 2.74. On to DLNSKGKKREFRFHPIKEFVVEEP, for which the protein stability index was 2.2. For the variant DLNSKGKKREFRFHPIKEAVVEEP, the protein stability index was found to be 2.07.

As for DLNSKGKKREFRFHPIKEIVVEEP, the protein stability index came out at 1.94.

For the variant DLNSKGKKREFRFHPIKENVVEEP, the protein stability index amounted to 2.31. For the variant DLNSKGKKREFRFHPIKEWVVEEP, the protein stability index amounted to 2.05. For the variant DLNSKGKKREFRFHPIKEPVVEEP, the protein stability index amounted to 1.74. As for DLNSKGKKREFRFHPIKEEVVEEP, the protein stability index came to 2.29.
